Experimental data published in US20240343810A1 (published 2024).

T1: mouse ICOS expressed on CHO cells (mouse, UniProt Q9WVS0 21-200)
T1 construct: also called CHO-S cells transfected with mouse ICOS; mICOS
T1 sequence (looked up): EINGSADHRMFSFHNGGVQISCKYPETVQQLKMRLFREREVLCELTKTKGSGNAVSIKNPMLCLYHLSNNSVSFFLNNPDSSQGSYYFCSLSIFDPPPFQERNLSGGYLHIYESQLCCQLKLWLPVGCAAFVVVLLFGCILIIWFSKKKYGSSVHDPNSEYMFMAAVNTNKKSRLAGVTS

T2: mouse ICOS-mFc (Chimerigen) (mouse, UniProt Q9WVS0 21-141, limits assumed)
T2 construct: Bought; also called recombinant mouse ICOS protein; mICOS; not shown: mouse Fc of the bought fusion
T2 sequence: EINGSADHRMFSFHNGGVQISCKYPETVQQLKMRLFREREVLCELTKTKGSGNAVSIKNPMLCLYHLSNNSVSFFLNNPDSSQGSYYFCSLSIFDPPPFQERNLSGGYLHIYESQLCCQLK

T3: human ICOS-mFc (Chimerigen) (human, UniProt Q9Y6W8 21-140)
T3 construct: Bought; also called recombinant human ICOS protein; hICOS; not shown: mouse Fc of the bought fusion
T3 sequence: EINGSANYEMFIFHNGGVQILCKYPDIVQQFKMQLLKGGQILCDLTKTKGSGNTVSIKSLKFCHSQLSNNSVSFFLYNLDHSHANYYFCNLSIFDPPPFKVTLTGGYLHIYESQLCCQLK

T4: human ICOS expressed on cells (human, UniProt Q9Y6W8 21-199)
T4 construct: also called CHO-S cells transfected with human ICOS; hICOS
T4 sequence: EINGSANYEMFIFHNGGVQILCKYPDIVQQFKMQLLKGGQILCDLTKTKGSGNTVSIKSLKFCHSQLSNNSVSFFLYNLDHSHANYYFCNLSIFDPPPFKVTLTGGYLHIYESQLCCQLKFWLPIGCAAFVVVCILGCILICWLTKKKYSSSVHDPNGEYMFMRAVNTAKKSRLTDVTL

B1: STIM003 (antibody, human IgG1, kappa)
heavy: not shown
light: EIVLTQSPGTLSLSPGERATLSCRASQSVSRSYLAWYQQKRGQAPRLLIYGASSRATGIPDRFSGDGSGTDFTLSISRLEPEDFAVYYCHQYDMSPFTFGPGTKVDIKRTVAAPSVFIFPPSDEQLKSGTASVVCLLNNFYPREAKVQWKVDNALQSGNSQESVTEQDSKDSTYSLSSTLTLSKADYEKHKVYACEVTHQGLSSPVTKSFNRGEC
notes: Anti-ICOS monospecific antibody, tested as human IgG1; also called STIM003 monoclonal IgG1 antibody
B2: STIM001 (antibody, human IgG1, kappa)
heavy: not shown
light: DIVMTQSPLSLPVTPGEPASISCRSSQSLLHSNEYNYLDWYLQKPGQSPQLLIFLGSNRASGVPDRFSGSGSGTDFTLKITRVEAEDVGIYYCMQSLQTPLTFGGGTKVEIKRTVAAPSVFIFPPSDEQLKSGTASVVCLLNNFYPREAKVQWKVDNALQSGNSQESVTEQDSKDSTYSLSSTLTLSKADYEKHKVYACEVTHQGLSSPVTKSFNRGEC
notes: Anti-ICOS monospecific antibody, tested as human IgG1; also called STIM001 monoclonal IgG1 antibody

Legend:
[1] = target: T1, mouse ICOS expressed on CHO cells; assay: Flow cytometry on CHO-S mouse ICOS cells, anti-human IgG AF647, mean
Description: (§1) CHO—S cells transfected with either human ICOS or mouse ICOS were resuspended in FACS buffer (PBS+1% w/v BSA+0.1% w/v sodium azide) and transferred to a 96-well V-bottom plate (Greiner) at a density of 1×10⁵ cells per well. mAb and mAb² were titrated in FACS buffer, 1 in 3 dilution across 11 points from a starting working concentration of 400 nM. Plates were centrifuged at 300×g for 3 minutes, supernatant discarded and 50 μL mAb or mAb² solution were added to cells and incubated at 4° C. for 1 hour. Cells were washed with 150 μL of PBS and centrifuged at 300×g for 3 minutes, supernatant was discarded and cell pellet resuspended in 150 μL PBS added. This wash step was repeated twice. Bound mAb or mAb² was detected by addition of 50 μL of anti-human 647 (Jackson ImmunoResearch) diluted to 3 ug/ml in FACS buffer. Cells were incubated for 1 hour at 4° C. in the dark. Cells were washed with 150 μL of PBS and centrifuged at 300 g for 3 minutes, supernatant was discarded and cell pellet resuspended in 150 μL PBS added. This wash step was repeated twice. Cells were fixed with 25 μL 4% v/v paraformaldehyde, incubated for 20 minutes at 4° C., cells were pelleted by centrifugation at 300×g and the supernatant discarded. […] AlexaFluor 647 signal intensity (geometric mean) was measured by flow cytometry using a Beckman Coulter CytoFLEX instrument.

[2] = target: T2, mouse ICOS-mFc (Chimerigen); assay: DELFIA ELISA on coated mouse ICOS-mFc, N=3
Description: (§2) Recombinant ICOS proteins, human ICOS-mFc or mouse ICOS-mFc (Chimerigen) were diluted in 1×PBS and added to Black Hi-bind plates (Griener) at 1 μg/ml, 50 μl/well. Recombinant PD-L1 proteins, human PD-L1-Flag-His or mouse-His were diluted in 1×PBS and added to Black Hi-bind plates (Griener) at 4 μg/ml, 50 μl/well. The plates were left overnight at 4° C. The next day plates were washed 3× with 300 μl/well of 1×PBS+0.1% Tween and blocked with 200 ul/well of 1×PBS+1% BSA blocking buffer for 1 hr at RT on a plate shaker. Plates were washed 3× with 300 μl/well of 1×PBS+0.1% Tween.
(§3) However, human-PD-L1 mAb² antibodies were diluted in 1×PBS+0.1% BSA buffer and diluted 1 in 2 from a starting working concentration of 0.066 μM over an 11 point titration. Titrated antibodies were added to the plates, 50 μl/well and left to incubate for 1 hr at R.T on a plate shaker. Plates were washed 3× with 300 μl/well of 1×PBS+0.1% Tween.
(§4) DELFIA® Eu-labelled Anti-human IgG (Perkin-Elmer) was diluted 1:500 in DELFIA Assay buffer (Perkin-Elmer) and added to the assay plate (50 μl/well), left to incubate for 1 hr at RT on a plate shaker. […] After incubation, assay was read on Envision plate reader (Perkin Elmer), Time-resolved fluorescence (TRF) was measured at 615 nm.

[3] = target: FcγRIIIa on effector cells (Jurkat NFAT luciferase v-variant effector cells, Promega) (human, UniProt P08637 17-254); assay: cell-based or functional assay
Sequence of FcγRIIIa on effector cells (Jurkat NFAT luciferase v-variant effector cells, Promega) (P08637 other isoform, or with tags, fused parts or gaps mutant limits assumed): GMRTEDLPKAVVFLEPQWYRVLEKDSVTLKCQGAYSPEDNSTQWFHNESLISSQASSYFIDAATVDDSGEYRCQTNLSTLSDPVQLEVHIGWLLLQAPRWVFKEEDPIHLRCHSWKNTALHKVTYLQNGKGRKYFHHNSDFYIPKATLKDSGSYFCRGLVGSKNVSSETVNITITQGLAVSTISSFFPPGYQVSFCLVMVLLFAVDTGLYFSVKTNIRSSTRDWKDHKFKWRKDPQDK

[4] = target: T1, mouse ICOS expressed on CHO cells; assay: Flow cytometry on CHO-S mouse ICOS cells, anti-human IgG AF647, N=1
Description: as §1

[5] = target: T1, mouse ICOS expressed on CHO cells; assay: Flow cytometry on CHO-S mouse ICOS cells, anti-human IgG AF647, N=2
Description: as §1

[6] = target: T3, human ICOS-mFc (Chimerigen); assay: DELFIA ELISA on coated human ICOS-mFc, N=3
Description: as §2, §3, §4

[7] = target: T3, human ICOS-mFc (Chimerigen); assay: DELFIA ELISA on coated human ICOS-mFc, N=1
Description: as §2, §3, §4

[8] = target: T4, human ICOS expressed on cells; assay: Flow cytometry on CHO-S human ICOS cells, anti-human IgG AF647, N=2
Description: as §1

Row | Binder | EC50 [1] | EC50 [2] | EC50 of luciferase fold of induction, CHO human ICOS target cells, N=1 [3] | EC50 of luciferase fold of induction, CHO human ICOS target cells, N=2 [3] | EC50 of luciferase fold of induction, CHO human ICOS target cells, N=3 [3] | EC50 of luciferase fold of induction, CHO human ICOS target cells, mean [3] | EC50 of luciferase fold of induction, CHO mouse ICOS target cells, N=1 [3] | EC50 of luciferase fold of induction, CHO mouse ICOS target cells, N=2 [3] | EC50 of luciferase fold of induction, CHO mouse ICOS target cells, N=3 [3] | EC50 of luciferase fold of induction, CHO mouse ICOS target cells, mean [3] | EC50 [4] | EC50 [5] | EC50 [6] | EC50 [7] | EC50 [8]
1 | B1 | 5420 pM | 338 pM | 326 pM | 477 pM | 240 pM | 347 pM | 508 pM | 754 pM | 702 pM | 655 pM | 6800 pM | 2200 pM | 727 pM | 488 pM | 4890 pM
2 | B2 | 16900 pM | 1730 pM | 456 pM | 247 pM | 147 pM | 283 pM | 479 pM | 534 pM | 579 pM | 530 pM | 25700 pM | 5060 pM | 41300 pM | 20000 pM | 13800 pM
